Source: patent US20220162684
Where two headings read alike, the source gives them in different places.

What was measured:
[1] = test system: HHH peptide (biotinylated histidine trimer) (synthetic)
[2] = test system: HHH peptide (biotinylated histidine trimer) (synthetic); conditions: quantum dot multivalent probe

CAAGCAGAAGACGGCATACGAGATCATGCTTCCCCAGGGAGATGGTTTGCCGGTGGGCAGGTTTAGGGTCTGCTCGGGATTGCGGAGGAACATGCGTCGCAAACGTGTAGATCTCGGTGGTCGCCGTATCATT [P7-B1-P5 aptamer]
EC50 ([1]; single aptamer on SureLight APC): 2.3 nM | EC50 ([1]; single aptamer on streptavidin-APC): 29.9 nM | EC50 ([1]; single aptamer on streptavidin-Alexa Fluor 647): 28 nM | EC50 [2]: 60 nM
